Our source for the binding result and Kd values is US20240366814A1 (University of California, published 2024).

The target of test [1] is T1, CUB domain-containing protein 1 (CDCP1), human, on the surface of human bladder cancer cell lines (human, UniProt Q9H5V8 30-836).
T1 construct: whole, on cells; Endogenous CDCP1 on UMUC3, TCC SUP, 5637, UMUC9 and other bladder cancer lines; also called SIMA135; CD318
T1 sequence (looked up): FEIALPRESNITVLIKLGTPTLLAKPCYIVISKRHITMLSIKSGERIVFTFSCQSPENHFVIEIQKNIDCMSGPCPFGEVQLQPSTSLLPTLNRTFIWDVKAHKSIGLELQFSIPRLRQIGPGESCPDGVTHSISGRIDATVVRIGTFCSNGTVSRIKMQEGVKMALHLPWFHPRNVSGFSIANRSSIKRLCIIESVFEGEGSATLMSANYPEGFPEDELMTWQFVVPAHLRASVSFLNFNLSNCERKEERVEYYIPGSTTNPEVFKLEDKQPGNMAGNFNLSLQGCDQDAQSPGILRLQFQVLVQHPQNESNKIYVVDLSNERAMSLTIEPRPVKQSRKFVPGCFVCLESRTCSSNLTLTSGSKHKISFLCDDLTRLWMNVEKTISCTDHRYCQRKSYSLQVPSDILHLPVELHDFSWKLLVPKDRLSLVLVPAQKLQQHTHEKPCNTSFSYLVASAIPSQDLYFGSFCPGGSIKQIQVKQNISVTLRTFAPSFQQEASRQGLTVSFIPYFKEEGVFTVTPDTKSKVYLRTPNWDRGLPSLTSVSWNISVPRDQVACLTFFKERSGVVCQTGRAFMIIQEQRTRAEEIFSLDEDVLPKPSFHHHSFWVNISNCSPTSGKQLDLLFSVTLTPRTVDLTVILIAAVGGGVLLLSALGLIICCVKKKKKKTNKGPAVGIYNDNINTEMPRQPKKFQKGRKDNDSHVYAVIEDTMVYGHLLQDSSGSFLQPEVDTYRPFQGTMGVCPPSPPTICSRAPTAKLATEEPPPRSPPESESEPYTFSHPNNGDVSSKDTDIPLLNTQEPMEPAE
As to the kind of experiment: flow cytometry on human bladder cancer cell lines (5637, HT-1197, HT-1397, UMUC9, 639V, T24, 253JBV, UMUC3, TCCSUP). As for the experimental part: Flow Cytometry. Cells were trypsinized and washed, and then incubated with either a PE-anti-CDCP1 antibody (Biolegend #324017, 1:100) or 4A06 for 30 minutes on ice. For cells incubated with unlabeled 4A06, after the 30 min incubation, the cells were washed with PBS multiple times and placed in a fluorophore conjugated secondary antibody solution for 30 minutes on ice (1:1000, 109-546-097, Jackson ImmunoResearch). Cells were collected and washed before being placed in PBS and passed through a cell strainer. Cells were analyzed using an Attune NxT Flow and data were analyzed using FlowJo software.
(§1) CDCP1 protein expression in human bladder cancer cell lines representing luminal (5637, HT-1197, HT-1397, UMUC9) and basal subtypes (639V, T24, 253JBV, UMUC3, TCCSUP) was evaluated. […] UMUC3 and TCC SUP had the highest expression of CDCP1, while UMUC9 and 253 JBV had the lowest relative level. Cell surface receptor numbers were further quantified using ¹²⁵I-labeled 4A06 antibody.
For orientation: A flow cytometer gives signals particle by particle.

The target of test [2] is T1, CUB domain-containing protein 1 …. The test can be described thus: saturation binding of 125I-4A06 on 5637 cells. Here is the method:
(§2) Saturation binding assays. ¹²⁵I-4A06 was prepared as previously reported (Moroz et al., Clin Cancer Res, 6(14):3608-3615, 2020). The final yield of purified ¹²⁵I-4A06 was ˜60% (specific activity ˜1 μCi/μg) and purity was >99%. UMUC3, TCC SUP, 5637, and UMUC9 cells (0.6×10⁶ cell/well) were seeded on 12-well plates using DMEM (10% FBS). The cells were washed with PBS for the saturation binding assay. Total binding of ¹²⁵I-4A06 was determined by adding it to cell suspensions at seven concentrations from 0.025 nM to 10 nM. Non-specific binding was determined by adding 1000× cold 4A06 to ¹²⁵I-4A06/cell mixtures at three concentrations. Cells were incubated with ˜0.5 μCi ¹²⁵I-4A06 at room temperature for 1 hr, washed with PBS, and lysed by adding 1.0 M NaOH. The bound and unbound radioactive fractions were collected and measured on a Hidex Gamma counter (Turku, FI). Bmax was calculated using Prism v8.0.
as §1

The target is the same in test [3]. The test can be described thus: saturation binding of 125I-4A06 on TCC SUP cells. As for the experimental part: as §2, §1
For test [4] the target is unchanged. The test can be described thus: saturation binding of 125I-4A06 on UMUC3 cells. Here is the method:
as §2, §1

For test [5] the target is unchanged. As to the kind of experiment: saturation binding of 125I-4A06 on UMUC9 cells. As for the experimental part:
as §2, §1

Broadly, the Kd is the constant that tells how readily two partners part at equilibrium. Higher therefore signals weaker binding.

B1: recombinant monoclonal antibody 4A06 (IgG1 format) (antibody, V domains shown)
VH: EVQLVESGGGLVQPGGSLRLSCAASGFNLSYYYIHWVRQAPGKGLEWVASIYSSSSYTSYADSVKGRFTISADTSKNTAYLQMNSLRAEDTAVYYCARAYYGFDYWGQGTLVTVSS
VL: DIQMTQSPSSLSASVGDRVTITCRASQSVSSAVAWYQQKPGKAPKLLIYSASSLYSGVPSRFSGSRSGTDFTLTISSLQPEDFATYYCQQSYYYYPITFGQGTKVEIK
notes: Used unlabelled in flow cytometry, detected with a fluorophore-conjugated secondary antibody; also called CDCP1-002; 4A06 antibody
For the molecule B1, the binding result in test [1] is recorded as “binds”.

B2: 125I-labeled 4A06 antibody (antibody, V domains shown)
VH: EVQLVESGGGLVQPGGSLRLSCAASGFNLSYYYIHWVRQAPGKGLEWVASIYSSSSYTSYADSVKGRFTISADTSKNTAYLQMNSLRAEDTAVYYCARAYYGFDYWGQGTLVTVSS
VL: DIQMTQSPSSLSASVGDRVTITCRASQSVSSAVAWYQQKPGKAPKLLIYSASSLYSGVPSRFSGSRSGTDFTLTISSLQPEDFATYYCQQSYYYYPITFGQGTKVEIK
modifications: radioiodinated with iodine-125; labelled residues not stated
notes: specific activity ~1 uCi/ug, purity >99%); also called ^125I-4A06; 125I-4A06
Turning to B2, the Kd in test [2] came out at 0.284 nM; in test [3], 0.583 nM; in test [4], 1.84 nM; in test [5], 0.181 nM.
